In paper PMC5931534:

Assays:
calmodulin (CaM) [1] = target: calmodulin (CaM) (UniProt P62157)
calmodulin (CaM) [2] = target: calmodulin (CaM) (UniProt P62157); experiment: ELISA; 96-well MaxiSorp plates coated with 1 ug CaM at 4 C overnight, blocked with 4% BSA; 80 ng DAPK2 for 15 min at 30 C; detected with anti-DAPK2 antibody, HRP secondary and ABTS

Chain of FLAG-DAPK2 S289A (Q9UIK4 whole entry, stated change not applied): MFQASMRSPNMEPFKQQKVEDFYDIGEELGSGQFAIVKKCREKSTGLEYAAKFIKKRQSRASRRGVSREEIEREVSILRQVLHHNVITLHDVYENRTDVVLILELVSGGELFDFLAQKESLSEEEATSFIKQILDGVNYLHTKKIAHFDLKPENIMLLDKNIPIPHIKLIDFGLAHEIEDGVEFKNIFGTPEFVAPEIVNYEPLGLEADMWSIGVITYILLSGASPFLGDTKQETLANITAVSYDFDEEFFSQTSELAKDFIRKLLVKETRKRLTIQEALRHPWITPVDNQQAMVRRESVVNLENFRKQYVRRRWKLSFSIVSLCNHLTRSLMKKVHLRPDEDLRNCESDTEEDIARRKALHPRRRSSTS
Chain of FLAG-DAPK2 S289D (Q9UIK4 whole entry, stated change not applied): as above

A fold induction of the catalytic activity (MLC phosphorylation, in vitro kinase assay) upon addition of Ca2+/CaM against EGTA (calmodulin (CaM) [1]) of 5.4 fold was found for “FLAG-DAPK2 S289A (from UniProt Q9UIK4-1 1-370) (enzyme)” in this work.
A fold lower ELISA signal than DAPK2 WT (calmodulin (CaM) [2]) of 5 fold was found for “DAPK2 S289D (ELISA CaM binding assay) (from UniProt Q9UIK4-1 1-370) (enzyme)” in this work.
A fold induction of the catalytic activity (MLC phosphorylation, in vitro kinase assay) upon addition of Ca2+/CaM against EGTA (calmodulin (CaM) [1]) of 1.6 fold was found for “FLAG-DAPK2 S289D (from UniProt Q9UIK4-1 1-370) (enzyme)” in this work.
